In PMC2151661:

Legend:
[1] = target: human ENaC αβγTh (thrombin consensus sequence LVPRG at γ186-190) (human) (UniProt P37088)
[2] = target: wild-type human epithelial Na+ channel (α, β, γ ENaC) (human) (UniProt P37088)
[3] = target: wild-type human epithelial Na+ channel (α, β, γ ENaC) (human) (UniProt P37088); remark: listed apart in the source
[4] = target: human ENaC αβγ_(V182G;V193G) (human) (UniProt P37088)
[5] = target: wild-type human epithelial Na+ channel (α, β, γ ENaC) (human) (UniProt P37088); remark: listed apart in the source
[6] = target: human ENaC αβγ_(V182G;V193G) (human) (UniProt P37088); remark: listed apart in the source
[7] = target: human ENaC αβγ_(A190G) (human) (UniProt P37088)
[8] = target: human ENaC αβγ_(A190G) (human) (UniProt P37088); remark: listed apart in the source
[9] = target: wild-type human epithelial Na+ channel (α, β, γ ENaC) (human) (UniProt P37088); remark: listed apart in the source
[10] = target: human ENaC αβγ_(V182G;V193G) (human) (UniProt P37088); remark: listed apart in the source
[11] = target: wild-type human epithelial Na+ channel (α, β, γ ENaC) (human) (UniProt P37088); remark: listed apart in the source
[12] = target: human ENaC αβγ_(V182G;V193G) (human) (UniProt P37088); remark: listed apart in the source
[13] = target: wild-type human epithelial Na+ channel (α, β, γ ENaC) (human) (UniProt P37088); remark: listed apart in the source
[14] = target: human ENaC αβγ_(V182G;V193G) (human) (UniProt P37088); remark: listed apart in the source

human α thrombin (enzyme) showed a K1/2 (TH concentration at half maximal stimulation of ΔIPR^Norm) [1] of 14.8 nM, an apparent KM from kobs of INa activation against TH concentration (Eq. 8) [1] of 0.34 µM and a ΔIPR^Norm, 300 nM TH, aprotinin-treated FRT cells [2] of 0.1.

Work on “human neutrophil elastase (from UniProt P08246 30-267) (enzyme)” yielded a ΔIPR^Norm against NE concentration, 30 to 1,000 nM, aprotinin-treated FRT cells [3] of 0.75, a ΔIPR^Norm against NE concentration, 30 to 1,000 nM, aprotinin-treated FRT cells [4] of 0.52 and a ΔIPR^Norm, 300 nM NE, aprotinin-treated FRT cells (comparison with αβγTh) [2] of 0.6. The K1/2 (NE concentration at half maximal stimulation of ΔIPR^Norm) [5] was 100 nM, the apparent KM from kobs (1/τ) of INa activation against NE concentration (Eq. 8) [5] was 0.57 µM and the K1/2 (NE concentration at half maximal stimulation of ΔIPR^Norm) [6] was 510 nM.

In the case of “porcine pancreatic elastase (from UniProt P00772 27-266) (enzyme)”, the K1/2 (PE concentration at half maximal stimulation of ΔIPR^Norm) [7] is reported as 1140 nM, the ΔIPR^Norm, 1,000 nM PE, aprotinin-treated FRT cells [8] is reported as 0.26 and the time constant τ of INa activation by 1,000 nM PE, aprotinin-treated FRT cells [9] is reported as 1.94 min. For the same substance, the ΔIPR^Norm, 1,000 nM PE, aprotinin-treated FRT cells [9] was 0.7, the time constant τ of INa activation by 1,000 nM PE, aprotinin-treated FRT cells [10] was 2.17 min and the ΔIPR^Norm, 1,000 nM PE, aprotinin-treated FRT cells [10] was 0.89. The K1/2 (PE concentration at half maximal stimulation of ΔIPR^Norm) [11] was 77 nM, the apparent KM from kobs of INa activation against PE concentration (Eq. 8) [11] was 0.204 µM and the K1/2 (PE concentration at half maximal stimulation of ΔIPR^Norm) [12] was 35 nM. For the same substance, the apparent KM from kobs of INa activation against PE concentration (Eq. 8) [12] was 0.29 µM, the time constant τ of INa activation by 300 nM PE, aprotinin-treated FRT cells [13] was 2 min and the time constant τ of INa activation by 300 nM PE, aprotinin-treated FRT cells [14] was 3.6 min. The ΔIPR^Norm, 300 nM PE, aprotinin-treated FRT cells (comparison with αβγTh) [2] was 0.7.
